The test deals with Abi2-SH3 domain (AbI2B) (SH3 domain array) (Homo sapiens (Human), UniProt Q9NYB9-1). Nature of the test: SH3 domain array (far-western overlay).

The source of these data is article PMC3629710 (2013).

Chain of Abi2-SH3 domain (AbI2B) (SH3 domain array) (Q9NYB9 451-510): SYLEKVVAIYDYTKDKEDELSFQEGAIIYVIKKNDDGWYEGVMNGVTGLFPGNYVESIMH

As for SLLFRRTKATAPGPEGGGTLHPNPTDKTSSIQSRPLPSPPKFT (protein) [His-tagged-p130Cas-P2 domain], the binding result is on record as “binds”.
